Changes are numbered by the printed parent chain. Names may count otherwise.
B1: XENP28536 (antibody, human IgG1, kappa, V domains shown)
VH: EVQLVESGGGLVQPGGSLRLSCAASGFTFSSFGMHWVRQAPGKGLEWVSYISSGSSIIYYADSVKGRFTISRDNAKNSLYLQMNSLRAEDTAVYYCARGGRLVWSPDYWGQGTLVTVSS
VL: DIVMTQSPDSLAVSLGERATINCKSSQSLLNSGNQKNYLTWYQQKPGQPPKLLIYWASTRESGVPDRFTGSGSGTDFTLTISSLQAEDVAVYYCQNDYSYPFTFGSGTKLEIKR
notes: Format is bivalent human IgG1 with E233P/L234V/L235A/G236del/S267K; also called mAb C; mAb C[PD-1]_H1L1
B2: mAb C[PD-1]_H1_L1.1 (antibody, IgG1, V domains shown)
VH: B1 VH
VL: DIVMTQSPDSLAVSLGERATINCKSSQSLLHSGNQKNYLTWYQQKPGQPPKLLIYWASTRESGVPDRFTGSGSGTDFTLTISSLQAEDVAVYYCQNDYSYPFTFGSGTKLEIK
B3: mab_C[PD-1]_H1_L1.3 (antibody, IgG1, V domains shown)
VH: B1 VH
VL: B2 VL with H31S

Tests used:
human PD-1-His = target: T1, human PD-1-His (human, UniProt Q15116 25-167, limits assumed); assay: Octet BLI; antibody captured on anti-human Fc (AHC) biosensors, dipped into PD-1-His
T1 construct: not shown: His tag

PD-1-His = target: T2, PD-1-His (UniProt Q15116 25-167, limits assumed); assay: Octet affinity screen; bivalent IgG1 format
T2 construct: Captured on HIS1K biosensors; not shown: His tag
Description: We engineered affinity optimized variants of mAb C. A library of variants was constructed by standard mutagenesis to introduce point mutations into the variable heavy or variable light regions of XENP28536. Illustrative sequences are depicted in FIG. 70A-FIG. 70I (variable domain sequences).

T2 sequence (Q15116 25-167 limits assumed): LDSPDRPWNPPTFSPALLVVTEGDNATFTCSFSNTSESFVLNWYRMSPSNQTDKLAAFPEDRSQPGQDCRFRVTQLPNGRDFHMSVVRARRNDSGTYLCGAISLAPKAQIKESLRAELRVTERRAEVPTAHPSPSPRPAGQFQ
T1 sequence (Q15116 25-167 limits assumed): as above

Binder	binding result (human PD-1-His)	fold improved affinity over WT (mAb C[PD-1]_H1L1) (PD-1-His)
B1	binds	
B2		> 2 fold
B3		> 2 fold

— US20210355185A1 (Xencor, published 2021)
